Data on 7 molecules can be found in paper PMC4090178, “Structural and Biochemical Characterization of Human PR70 in Isolation and in Complex with the Scaffolding Subunit of Protein Phosphatase 2A” (PLoS ONE, 2014).

B1: PR70 (130–555) (domain or fragment, human, UniProt Q9Y5P8 130-555, looked up)
chain: FPRGRPQDSVNVDAVISKIESTFARFPHERATMDDMGLVAKACGCPLYWKGPLFYGAGGERTGSVSVHKFVAMWRKILQNCHDDAAKFVHLLMSPGCNYLVQEDFVPFLQDVVNTHPGLSFLKEASEFHSRYITTVIQRIFYAVNRSWSGRITCAELRRSSFLQNVALLEEEADINQLTEFFSYEHFYVIYCKFWELDTDHDLLIDADDLARHNDHALSTKMIDRIFSGAVTRGRKVQKEGKISYADFVWFLISEEDKKTPTSIEYWFRCMDLDGDGALSMFELEYFYEEQCRRLDSMAIEALPFQDCLCQMLDLVKPRTEGKITLQDLKRCKLANVFFDTFFNIEKYLDHEQKEQISLLRDGDSGGPELSDWEKYAAEEYDILVAEETAGEPWEDGFEAELSPVEQKLSALRSPLAQRPFFEAPS
notes: PR70 (B''β), regulatory B'' subunit of PP2A, human, product of PPP2R3B; residues 130–555; source: E. coli BL21(DE3), purified (IMAC, TEV cleavage, gel filtration); not shown: His tag, N-terminal, cleaved
B2: PR70 (105–575) (domain or fragment, human, UniProt Q9Y5P8 105-575, looked up)
chain: GTRVVQTRKEEPLPPATSQSIPTFYFPRGRPQDSVNVDAVISKIESTFARFPHERATMDDMGLVAKACGCPLYWKGPLFYGAGGERTGSVSVHKFVAMWRKILQNCHDDAAKFVHLLMSPGCNYLVQEDFVPFLQDVVNTHPGLSFLKEASEFHSRYITTVIQRIFYAVNRSWSGRITCAELRRSSFLQNVALLEEEADINQLTEFFSYEHFYVIYCKFWELDTDHDLLIDADDLARHNDHALSTKMIDRIFSGAVTRGRKVQKEGKISYADFVWFLISEEDKKTPTSIEYWFRCMDLDGDGALSMFELEYFYEEQCRRLDSMAIEALPFQDCLCQMLDLVKPRTEGKITLQDLKRCKLANVFFDTFFNIEKYLDHEQKEQISLLRDGDSGGPELSDWEKYAAEEYDILVAEETAGEPWEDGFEAELSPVEQKLSALRSPLAQRPFFEAPSPLGAVDLYEYACGDEDLEPL
notes: PR70 (B''β), regulatory B'' subunit of PP2A, human, product of PPP2R3B; source: E. coli BL21(DE3), purified (IMAC, TEV cleavage, gel filtration); not shown: His tag, N-terminal, cleaved
B3: PR70 core fragment (residues 130–483) (domain or fragment, human, UniProt Q9Y5P8 130-483, looked up)
chain: FPRGRPQDSVNVDAVISKIESTFARFPHERATMDDMGLVAKACGCPLYWKGPLFYGAGGERTGSVSVHKFVAMWRKILQNCHDDAAKFVHLLMSPGCNYLVQEDFVPFLQDVVNTHPGLSFLKEASEFHSRYITTVIQRIFYAVNRSWSGRITCAELRRSSFLQNVALLEEEADINQLTEFFSYEHFYVIYCKFWELDTDHDLLIDADDLARHNDHALSTKMIDRIFSGAVTRGRKVQKEGKISYADFVWFLISEEDKKTPTSIEYWFRCMDLDGDGALSMFELEYFYEEQCRRLDSMAIEALPFQDCLCQMLDLVKPRTEGKITLQDLKRCKLANVFFDTFFNIEKYLDHEQK
notes: PR70 (B''β), regulatory B'' subunit of PP2A, human, product of PPP2R3B; The crystal (PDB 4MEW) was of the selenomethionine-labelled protein alone; the model holds residues 134–481; also called PR70 core domain; source: E. coli BL21(DE3), purified (IMAC, TEV cleavage, gel filtration); not shown: His tag, N-terminal, cleaved
B4: PR70 (25–575) (domain or fragment, human, UniProt Q9Y5P8 25-575, looked up)
chain: EASTQRMLQDCLRRIKAPGRDQPTPGDGEQPGAWPTAPLAAPRPSGLEPPGTPGPGPALPLGAASSPRNAPHVRGTRRSAGTRVVQTRKEEPLPPATSQSIPTFYFPRGRPQDSVNVDAVISKIESTFARFPHERATMDDMGLVAKACGCPLYWKGPLFYGAGGERTGSVSVHKFVAMWRKILQNCHDDAAKFVHLLMSPGCNYLVQEDFVPFLQDVVNTHPGLSFLKEASEFHSRYITTVIQRIFYAVNRSWSGRITCAELRRSSFLQNVALLEEEADINQLTEFFSYEHFYVIYCKFWELDTDHDLLIDADDLARHNDHALSTKMIDRIFSGAVTRGRKVQKEGKISYADFVWFLISEEDKKTPTSIEYWFRCMDLDGDGALSMFELEYFYEEQCRRLDSMAIEALPFQDCLCQMLDLVKPRTEGKITLQDLKRCKLANVFFDTFFNIEKYLDHEQKEQISLLRDGDSGGPELSDWEKYAAEEYDILVAEETAGEPWEDGFEAELSPVEQKLSALRSPLAQRPFFEAPSPLGAVDLYEYACGDEDLEPL
notes: PR70 (B''β), regulatory B'' subunit of PP2A, human, product of PPP2R3B; also called B''/PR70; source: E. coli BL21(DE3), purified (IMAC, TEV cleavage, gel filtration); not shown: His tag, N-terminal, cleaved
B5: PR70 (130–504) (domain or fragment, human, UniProt Q9Y5P8 130-504, looked up)
chain: FPRGRPQDSVNVDAVISKIESTFARFPHERATMDDMGLVAKACGCPLYWKGPLFYGAGGERTGSVSVHKFVAMWRKILQNCHDDAAKFVHLLMSPGCNYLVQEDFVPFLQDVVNTHPGLSFLKEASEFHSRYITTVIQRIFYAVNRSWSGRITCAELRRSSFLQNVALLEEEADINQLTEFFSYEHFYVIYCKFWELDTDHDLLIDADDLARHNDHALSTKMIDRIFSGAVTRGRKVQKEGKISYADFVWFLISEEDKKTPTSIEYWFRCMDLDGDGALSMFELEYFYEEQCRRLDSMAIEALPFQDCLCQMLDLVKPRTEGKITLQDLKRCKLANVFFDTFFNIEKYLDHEQKEQISLLRDGDSGGPELSDWEK
notes: PR70 (B''β), regulatory B'' subunit of PP2A, human, product of PPP2R3B; residues 130–504; source: E. coli BL21(DE3), purified (IMAC, TEV cleavage, gel filtration); not shown: His tag, N-terminal, cleaved
B6: PR72 (24–529) (domain or fragment, UniProt Q06190-2 24-529, looked up)
chain: GCDFVLPSRFKKRLKSFQQTQIQNKPEKKPGTPLPPPATSPSSPRPLSPVPHVNNVVNAPLSINIPRFYFPEGLPDTCSNHEQTLSRIETAFMDIEEQKADIYEMGKIAKVCGCPLYWKAPMFRAAGGEKTGFVTAQSFIAMWRKLLNNHHDDASKFICLLAKPNCSSLEQEDFIPLLQDVVDTHPGLTFLKDAPEFHSRYITTVIQRIFYTVNRSWSGKITSTEIRKSNFLQTLALLEEEEDINQITDYFSYEHFYVIYCKFWELDTDHDLYISQADLSRYNDQASSSRIIERIFSGAVTRGKTIQKEGRMSYADFVWFLISEEDKRNPTSIEYWFRCMDVDGDGVLSMYELEYFYEEQCERMEAMGIEPLPFHDLLCQMLDLVKPAVDGKITLRDLKRCRMAHIFYDTFFNLEKYLDHEQRDPFAVQKDVENDGPEPSDWDRFAAEEYETLVAEESAQAQFQEGFEDYETDEPASPSEFGNKSNKILSASLPEKCGKLQSVDEE
notes: PR72 (B''α2), regulatory B'' subunit of PP2A, product of PPP2R3A; residues 24–529; the end at 529 fits the PR72 isoform of 529 residues, not PR130; also called PR72 subunit (residue 24–529); B''α2; source: E. coli BL21(DE3), purified (IMAC, TEV cleavage, gel filtration); not shown: His tag, N-terminal, cleaved

What all share (experiment): ITC; B''-constructs at 20–40 µM in the cell titrated with 200–300 µM Aα or Aβ constructs; 15°C; 20 mM Tris pH 7.5, 200 mM NaCl, 2 mM CaCl2; 1:1 binding model
(In general: In ITC the heat of successive injections is recorded.)

For the assay “PR70 (105–575)”, the target named is B2.
The assay “PR70 (25–575)” has as its target B4.
A further assay concerns the target T1, A α (HEAT1–15) (UniProt P30153 1-589).
T1 construct: PP2A scaffolding subunit A, α isoform, product of PPP2R1A; HEAT repeats 1–15; calculated molecular weight 65.3 kD; also called full length A-subunit; scaffolding A subunit; source: E. coli BL21(DE3), purified (IMAC, TEV cleavage, gel filtration); not shown: His tag, N-terminal, cleaved
As to conditions: both partners purified.

T1 sequence (P30153 whole entry, canonical isoform): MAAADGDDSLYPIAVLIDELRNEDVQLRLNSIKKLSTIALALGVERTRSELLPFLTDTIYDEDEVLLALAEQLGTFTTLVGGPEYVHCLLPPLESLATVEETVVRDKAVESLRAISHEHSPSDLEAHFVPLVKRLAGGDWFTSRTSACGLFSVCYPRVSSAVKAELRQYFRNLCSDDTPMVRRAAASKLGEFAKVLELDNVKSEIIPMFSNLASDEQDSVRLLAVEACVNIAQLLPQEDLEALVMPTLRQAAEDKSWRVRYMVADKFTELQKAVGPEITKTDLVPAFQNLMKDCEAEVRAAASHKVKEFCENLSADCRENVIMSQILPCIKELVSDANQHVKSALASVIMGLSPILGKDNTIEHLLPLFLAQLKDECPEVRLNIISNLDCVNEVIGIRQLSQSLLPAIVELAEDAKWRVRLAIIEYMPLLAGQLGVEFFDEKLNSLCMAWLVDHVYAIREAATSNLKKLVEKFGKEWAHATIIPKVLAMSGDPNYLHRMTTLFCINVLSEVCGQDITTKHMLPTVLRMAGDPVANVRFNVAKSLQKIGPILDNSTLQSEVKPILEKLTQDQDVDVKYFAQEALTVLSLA

The term Kd denotes the concentration at which binding is half-saturated. In general, stoichiometry N refers to a count of units in the complex or per binding partner. For “A β (HEAT1–15) (from UniProt P30154 1-601) (natural protein)”, in the assay with PR70 (105–575), the dissociation constant Kd amounted to 411 nM, the dH is -17.1 kcal/mol and the stoichiometry N turned out to be 0.86. Besides, in the assay with PR70 (25–575), the dissociation constant (Kd) amounted to 702 nM, the dH is -21.5 kcal/mol and the stoichiometry N is 1.01.

B1 gave a dissociation constant Kd with A α (HEAT1–15) of over 100000 nM.

For B2, the dissociation constant (Kd) with A α (HEAT1–15) was 45 ± 8 nM.

As to B3, the dissociation constant (Kd) in the assay with A α (HEAT1–15) was over 100000 nM.

B4 displayed a dissociation constant (Kd) with A α (HEAT1–15) of 112 ± 6 nM.

In turn, B5 had a Kd with A α (HEAT1–15) of over 100000 nM.

B6 came in with a dissociation constant Kd with A α (HEAT1–15) of 2920 ± 300 nM.
